The test system of data set [1] is FLAG-tagged JNK1(Arg-309-Trp) from the pCMV-FLAG vector, expressed in COS cells.
Data set [2] has as its system FLAG-tagged JNK1(Leu-131-Arg) from the pCMV-FLAG vector, expressed in COS cells.
In data set [3] the test system is FLAG-tagged JNK1(Tyr-320-His) from the pCMV-FLAG vector, expressed in COS cells.
The test system of data set [4] is FLAG-tagged wild-type JNK1 from pCMV-FLAG-JNK1, expressed in COS cells.
FLAG-tagged wild-type JNK1 from pCMV-FLAG-JNK1, expressed in COS cells, sequence (chain, as listed by the source): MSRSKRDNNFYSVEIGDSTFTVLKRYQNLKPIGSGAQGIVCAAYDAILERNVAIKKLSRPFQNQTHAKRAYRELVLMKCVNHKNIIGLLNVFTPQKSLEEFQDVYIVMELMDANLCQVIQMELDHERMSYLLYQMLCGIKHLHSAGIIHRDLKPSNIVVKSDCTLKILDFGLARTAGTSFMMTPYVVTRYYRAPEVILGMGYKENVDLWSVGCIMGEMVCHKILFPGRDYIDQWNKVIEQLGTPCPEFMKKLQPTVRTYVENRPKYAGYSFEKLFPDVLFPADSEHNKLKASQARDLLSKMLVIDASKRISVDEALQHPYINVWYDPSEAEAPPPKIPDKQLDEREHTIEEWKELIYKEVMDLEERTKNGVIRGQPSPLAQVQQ

FLAG-tagged JNK1(Arg-309-Trp) from the pCMV-FLAG vector, expressed in COS cells, sequence (chain, as listed by the source R309W): as the sequence (chain, as listed by the source) above, with R309W counted along it
FLAG-tagged JNK1(Tyr-320-His) from the pCMV-FLAG vector, expressed in COS cells, sequence (chain, as listed by the source Y320H): as the sequence (chain, as listed by the source) above, with Y320H counted along it
FLAG-tagged JNK1(Leu-131-Arg) from the pCMV-FLAG vector, expressed in COS cells, sequence (chain, as listed by the source L131R): as the sequence (chain, as listed by the source) above, with L131R counted along it

As for “GST-MKK4(ED), constitutively active form of MKK4”, the “phosphorylation of immunoprecipitated FLAG-JNK by GST-MKK4(ED), in vitro kinase assay with [32P]ATP, autoradiography” value in data set [1] was “the negligible amount of radioactive phosphate incorporated into any of the three JNK mutants was not increased by the presence of active MKK4”; in data set [2], “the negligible amount of radioactive phosphate incorporated into any of the three JNK mutants was not increased by the presence of active MKK4”; in data set [3], “the negligible amount of radioactive phosphate incorporated into any of the three JNK mutants was not increased by the presence of active MKK4”; in data set [4] it was “The presence of active MKK4 increased the phosphorylation of wildtype JNK relative to the autophosphorylation that occurred in the absence of any upstream activator protein”.

For the origin of these results see patent US20080044815.
